Positions count from the first letter of the chain named.
Columns and labels:
[1] = target: T1, kappa-sCD40-Flag fusion protein, fragment amino acids 36-130 (human, UniProt P25942 56-150); experiment: ELISA, kappa-sCD40-Flag fragment captured on anti-Flag
T1 construct: not shown: N-terminal human kappa light chain; C-terminal Flag tag
Procedure: (§1) 1 μg/ml of purified kappa-sCD40-Flag fusion proteins or CHO cell supernatants containing the sCD40 fusion proteins were captured to microtiter plates that were pre-coated with 5 μg/ml mouse anti-Flag antibody (Sigma) in PBS and blocked with 5% bovine serum albumin in PBS. Following incubation with the CD40 antibody, the microplates were washed with PBS/Tween, and incubated with a goat anti-human IgG Fc polyclonal reagent conjugated to horseradish peroxidase. After washing, the plates were developed with HRP substrate, and analyzed at OD 450-650 using a microtiter plate reader. An ELISA with a goat anti-human IgG Fab2-HRP to measure kappa chain binding was carried out in parallel to validate the sCD40 fusion protein expression from different transfections.

[2] = target: T2, kappa-sCD40-Flag fusion protein, fragment amino acids 84-173 (human, UniProt P25942 104-193); experiment: as above
T2 construct: not shown: N-terminal human kappa light chain; C-terminal Flag tag
T2 sequence (P25942 104-193): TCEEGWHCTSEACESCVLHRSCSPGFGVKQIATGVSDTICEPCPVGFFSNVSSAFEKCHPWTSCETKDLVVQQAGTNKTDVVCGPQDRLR
Procedure: as §1

[3] = target: T2, kappa-sCD40-Flag fusion protein, …; experiment: ELISA, kappa-sCD40-Flag fusion (~1 ug/ml) captured on anti-Flag, anti-human IgG Fc-HRP
Procedure: as §1

[4] = target: T3, kappa-sCD40(1-94)-Flag point mutant E33A (human, UniProt P25942 21-114); experiment: ELISA, mutated kappa-sCD40(1-94)-Flag captured on anti-Flag
T3 construct: not shown: N-terminal human kappa light chain; C-terminal Flag tag
T3 chain: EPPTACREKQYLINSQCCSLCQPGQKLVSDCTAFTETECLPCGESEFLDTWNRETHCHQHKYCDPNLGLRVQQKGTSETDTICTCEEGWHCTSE

[5] = target: T4, kappa-sCD40(1-94)-Flag mutant fragment D (multiple mutations of residues 33-36) (human, UniProt P25942 21-114); experiment: as above
T4 construct: The text says only multiple mutations of residues 33-36 (human to mouse differences); that mutant D carries exactly these is inferred; also called D (33-36); not shown: N-terminal human kappa light chain; C-terminal Flag tag
T4 chain: T3 chain with F34L, T35E, E36K

T1 sequence (P25942 56-150): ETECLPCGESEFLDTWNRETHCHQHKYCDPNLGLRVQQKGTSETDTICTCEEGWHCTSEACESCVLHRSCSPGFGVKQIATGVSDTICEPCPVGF

B1: anti-CD40 human monoclonal antibody 3C3 (antibody, human IgG2, kappa, V domains shown)
VH: QVQLVESGGGVVQPGRSLRLSCAGSGFIFSRYGMYWVRQAPGKGLEWVAVIWYDGSYKYYADSVKGRFTISRDNSKNTLYLQMNSLRAEDTAVYYCARESPWYYFDYWGQGTLVTVSS
VL: DIQMTQSPSSLSASVGDRVTITCRASQGISNYLAWYQQKPGKVPKLLIYAASTLQSGVPSRFSGSGSGTDFTLTISSLQPEDVATYYCQKYKSAPFTFGPGTKVDIKR
notes: Human IgG2, C-terminal lysine removed; also called anti-CD40 mAb 3C3; CD40 antibody 3C3
binding result [1]: no binding (tested: ~1 ug/ml fragment)
binding result [2]: no binding (tested: ~1 ug/ml fragment)
Average OD [3]: 0.024 OD 450-650

B2: anti-CD40 human monoclonal antibody 3G5 (antibody, human IgG2, V domains shown)
VH: QVQLVESGGGVVQPGKSLRLSCAASGFTFSSNGIHWVRQAPGKGLEWVAVIWSDGSNKFYADSVKGRFTISRDNSKNTLYLQMNSLRAEDTAVYYCARASGSGSYYNFFDYWGQGTLVTVSS
VL: EIVMTQSPATLSVSPGERATLSCRASQSVRSNLAWYQQKPGQAPRLLIYGASTRATGIPARFSGSGSGTEFTLTINSLQSEDFAVYYCQQHNKWITFGQGTRLEIK
notes: Human IgG2
binding result [4]: no binding
binding result [5]: no binding

Reference: patent US20250115663A1 (CELLDEX THERAPEUTICS, published 2025)
